# Measured values as given in patent US10428140B2, “Anti-EphA4 antibody” (EISAI R&D MANAGEMENT CO., LTD., priority 2015, dated 2019).
# T1: human EphB3 (Homo sapiens, UniProt P54753)
# T1 construct: a protein of the extracellular region of each human Eph receptor fused with the SEAP protein and the His tag; made in house; host or cells: Expi293F cells
# T1 sequence (P54753 34-559 limits assumed): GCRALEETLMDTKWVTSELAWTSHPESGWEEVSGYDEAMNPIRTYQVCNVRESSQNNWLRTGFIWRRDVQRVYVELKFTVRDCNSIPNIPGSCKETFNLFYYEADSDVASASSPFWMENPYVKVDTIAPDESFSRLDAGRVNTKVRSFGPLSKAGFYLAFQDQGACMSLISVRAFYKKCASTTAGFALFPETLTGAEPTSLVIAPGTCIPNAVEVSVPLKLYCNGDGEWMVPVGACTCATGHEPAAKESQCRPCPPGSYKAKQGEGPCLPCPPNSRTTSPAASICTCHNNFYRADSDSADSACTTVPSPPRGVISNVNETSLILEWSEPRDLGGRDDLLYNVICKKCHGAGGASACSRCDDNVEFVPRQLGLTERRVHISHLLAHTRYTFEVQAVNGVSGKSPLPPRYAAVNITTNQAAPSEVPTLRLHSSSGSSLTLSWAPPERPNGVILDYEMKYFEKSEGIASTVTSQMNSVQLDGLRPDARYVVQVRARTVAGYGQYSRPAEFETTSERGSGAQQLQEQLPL
# T2: human EphA10 (Homo sapiens, UniProt Q5JZY3)
# T2 construct: a protein of the extracellular region of each human Eph receptor fused with the SEAP protein and the His tag; made in house; host or cells: Expi293F cells (culture supernatant)
# T2 sequence (Q5JZY3 34-565 limits assumed): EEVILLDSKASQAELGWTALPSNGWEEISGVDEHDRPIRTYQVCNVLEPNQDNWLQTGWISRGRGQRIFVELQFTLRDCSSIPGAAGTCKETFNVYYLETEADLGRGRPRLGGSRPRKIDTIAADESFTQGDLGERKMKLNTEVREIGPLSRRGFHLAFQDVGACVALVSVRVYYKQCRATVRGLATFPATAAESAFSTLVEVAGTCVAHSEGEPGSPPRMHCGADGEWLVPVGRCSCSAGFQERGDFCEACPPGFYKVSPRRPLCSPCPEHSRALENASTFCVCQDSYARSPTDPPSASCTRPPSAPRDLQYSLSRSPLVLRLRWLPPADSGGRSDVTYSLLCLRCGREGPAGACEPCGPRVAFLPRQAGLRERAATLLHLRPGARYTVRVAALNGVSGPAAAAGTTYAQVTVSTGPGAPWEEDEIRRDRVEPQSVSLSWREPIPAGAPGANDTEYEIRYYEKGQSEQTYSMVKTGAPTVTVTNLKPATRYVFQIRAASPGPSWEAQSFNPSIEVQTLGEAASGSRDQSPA
# Experiments:
# Test in all cases: Selectivity ELISA of humanized antibodies for human Eph receptor
# Format in all cases: binding
# Conditions in all cases: coated protein 1 nM
# human EphB3 = target: T1, human EphB3
# Summary of the method: (§1)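 Human Eph ECD-SEAP-His fusions, harvested after 5 days of Expi293F expression, are captured on anti-His-coated wells (1 nM final). Bound humanized antibody is detected with HRP anti-IgG and TMB at 450 nm.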
# human EphA10 = target: T2, human EphA10
# Summary of the method: as §1
# SEAP-His = SEAP-His (Homo sapiens, UniProt P05187)
# Summary of the method: as §1
# Chain of SEAP-His (P05187 23-511 limits assumed): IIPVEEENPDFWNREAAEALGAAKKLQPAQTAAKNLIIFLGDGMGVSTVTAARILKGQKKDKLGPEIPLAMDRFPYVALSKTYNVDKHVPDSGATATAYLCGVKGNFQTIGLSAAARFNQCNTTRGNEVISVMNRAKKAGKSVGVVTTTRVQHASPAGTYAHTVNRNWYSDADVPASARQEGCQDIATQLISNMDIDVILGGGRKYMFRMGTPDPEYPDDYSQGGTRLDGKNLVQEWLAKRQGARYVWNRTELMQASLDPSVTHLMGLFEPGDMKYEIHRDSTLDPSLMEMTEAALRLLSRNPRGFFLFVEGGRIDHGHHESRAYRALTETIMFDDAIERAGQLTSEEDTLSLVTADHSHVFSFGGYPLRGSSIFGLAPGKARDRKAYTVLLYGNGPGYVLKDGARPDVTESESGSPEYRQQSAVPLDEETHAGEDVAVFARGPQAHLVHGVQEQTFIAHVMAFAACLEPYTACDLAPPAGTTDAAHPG
Molecule,"hEphB3-SEAP-: absorbance at 450 nm, percentage with respect to hEphA4-SEAP-His as 100% (human EphB3) [%]","hEphA10-SEAP-: absorbance at 450 nm, percentage with respect to hEphA4-SEAP-His as 100% (human EphA10) [%]","SEAP-His: absorbance at 450 nm, percentage with respect to hEphA4-SEAP-His as 100% (SEAP-His) [%]"
"69 (antibody, V domains shown, synthetic humanized antibody heavy chain variable region sequence; synthetic humanized antibody light chain variable region sequence) VH: QIQLVQSGSELKKPGASVKVSCKASGYTFTDYSMHWVRQAPGQGLKWMGWINTETGEPTYADDFKGRFVFSLDTSVSTAYLQISSLKAEDTAVYYCARIPLYYYGSRYWYFDVWGQGTTVTVSS VL: DIQMTQSPSSLSASVGDRVTITCRASENIYRNLAWYQQKPGKAPKLLVYAATNLADGVPSRFSGSGSGTDYTLTISSLQPEDFATYYCQHFWGTPWTFGQGTKVEIK",5.9,5.4,6.1
"81 (antibody, V domains shown, constant regions without entry; synthetic humanized antibody light chain variable region sequence; synthetic humanized antibody heavy chain variable region sequence) VL: DIQMTQSPSSLSASVGDRVTITCRASENIYRNLAWYQQKPGKAPKLLLYAATNLADGVPSRFSGSGSGTDYTLTISSLQSEDFATYYCQHFWGTPWTFGQGTKVEIK VH: QVQLVQSGSELKKPGASVKVSCKASGYTFTDYSMHWVRQAPGQGLEWMGWINTETGEPTYAQGFTGRFVFSLDTSVSTAYLQISSLKAEDTAVYYCARIPLYYYGSRYWYFDVWGQGTTVTVSS",4.9,4.8,5.0
"82 (antibody, V domains shown, constant regions without entry; synthetic humanized antibody light chain variable region sequence; synthetic humanized antibody heavy chain variable region sequence) VL: DIQMTQSPSSLSASVGDRVTITCRASENIYRNLAWYQQKPGKAPKLLLYAATNLADGVPSRFSGSGSGTDYTLTISSLQSEDFATYYCQHFWGTPWTFGQGTKVEIK VH: QVQLVQSGSELKKPGASVKVSCKASGYTFTDYSMHWVRQAPGQGLKWMGWINTETGEPTYAQGFTGRFVFSLDTSVSTAYLQISSLKAEDTAVYYCARIPLYYYGSRYWYFDVWGQGTTVTVSS",5.6,5.4,5.9
"83 (antibody, V domains shown, constant regions without entry; synthetic humanized antibody light chain variable region sequence; synthetic humanized antibody heavy chain variable region sequence) VL: DIQMTQSPSSLSASVGDRVTITCRASENIYRNLAWYQQKPGKAPKLLLYAATNLADGVPSRFSGSGSGTDYTLTISSLQSEDFATYYCQHFWGTPWTFGQGTKVEIK VH: QIQLVQSGSELKKPGASVKVSCKASGYTFTDYSMHWVRQAPGQGLKWMGWINTETGEPTYAQGFTGRFVFSLDTSVSTAYLQISSLKAEDTAVYYCARIPLYYYGSRYWYFDVWGQGTTVTVSS",5.7,5.6,6.5
"84 (antibody, V domains shown, constant regions without entry; synthetic humanized antibody light chain variable region sequence; synthetic humanized antibody heavy chain variable region sequence) VL: DIQMTQSPSSLSASVGDRVTITCRASENIYRNLAWYQQKPGKAPKLLLYAATNLADGVPSRFSGSGSGTDYTLTISSLQSEDFATYYCQHFWGTPWTFGQGTKVEIK VH: QVQLVQSGSELKKPGASVKVSCKASGYTFTDYSMHWVRQAPGQGLEWMGWINTETGEPTYADDFKGRFVFSLDTSVSTAYLQISSLKAEDTAVYYCARIPLYYYGSRYWYFDVWGQGTTVTVSS",4.8,5.1,5.1
"85 (antibody, V domains shown, constant regions without entry; synthetic humanized antibody light chain variable region sequence; synthetic humanized antibody heavy chain variable region sequence) VL: DIQMTQSPSSLSASVGDRVTITCRASENIYRNLAWYQQKPGKAPKLLLYAATNLADGVPSRFSGSGSGTDYTLTISSLQSEDFATYYCQHFWGTPWTFGQGTKVEIK VH: QVQLVQSGSELKKPGASVKVSCKASGYTFTDYSMHWVRQAPGQGLKWMGWINTETGEPTYADDFKGRFVFSLDTSVSTAYLQISSLKAEDTAVYYCARIPLYYYGSRYWYFDVWGQGTTVTVSS",5.2,5.0,5.3
"86 (antibody, V domains shown, constant regions without entry; synthetic humanized antibody light chain variable region sequence; synthetic humanized antibody heavy chain variable region sequence) VL: DIQMTQSPSSLSASVGDRVTITCRASENIYRNLAWYQQKPGKAPKLLLYAATNLADGVPSRFSGSGSGTDYTLTISSLQSEDFATYYCQHFWGTPWTFGQGTKVEIK VH: QIQLVQSGSELKKPGASVKVSCKASGYTFTDYSMHWVRQAPGQGLKWMGWINTETGEPTYADDFKGRFVFSLDTSVSTAYLQISSLKAEDTAVYYCARIPLYYYGSRYWYFDVWGQGTTVTVSS",5.9,5.6,6.1
"87 (antibody, V domains shown, constant regions without entry; synthetic humanized antibody light chain variable region sequence; synthetic humanized antibody heavy chain variable region sequence) VL: DIQMTQSPSSLSASVGDRVTITCRASENIYRNLAWYQQKPGKAPQLLLYAATNLADGVPSRFSGSGSGTDYTLTISSLQPEDFATYYCQHFWGTPWTFGQGTKVEIK VH: QVQLVQSGSELKKPGASVKVSCKASGYTFTDYSMHWVRQAPGQGLEWMGWINTETGEPTYAQGFTGRFVFSLDTSVSTAYLQISSLKAEDTAVYYCARIPLYYYGSRYWYFDVWGQGTTVTVSS",5.5,5.2,5.5
